# B1: IbGDSL: recombinant GDSL esterase/lipase enzyme of Ipomoea batatas (SEQ ID No. 1) converting chlorogenic acid into isochlorogenic acid (protein)
# chain: MAAAAPSSSLLGVLMLLASIGYAAACYSAVFGFGDSLTDAGNLIRLEPDGTVPHMYFPPYGETYFDKPTGRCSDGRLIVDLIAQHYGLPLPPPSIPASLEGDKNRLRAGVNFAVVGSRALDAQFYEQRDIFDTVTNVSMTDQLNWFKELLPSLCSSPHDCKELLDGSLFVLGEFGGNDYTHSLLSGKGINVIRPFIPIVTRAIAQAVHELVELGARTVMIPSVLPLGCAASYLTYYPSPNPDDYDELGCLIWVNEMASYHNQLLQQQLAHVRELHPYANIVFADIYNAAMEVYQGPDTYGFSGGALRACCGGGGPYNFNTSAQCGNEGATACDNPSSYVNWDGYHLTEAAYQCITTGLLEGPYTYPRMKNLCRFDSRKTSRVAQI
# modifications: Ipomoea batatas
# How the values were obtained:
# Type in all cases: biochemical
# [1] = in vitro enzyme assay of purified recombinant IbGDSL (produced in N. benthamiana): conversion of CGA into 3,5-DCQ, UPLC-MS
# Protocol: The in vitro enzyme assays are conducted on the purified recombinant enzyme produced in a plant system. After 6 days of co-culture, N. benthamiana leaves agro-infiltrated with the vector carrying the gene of interest, are harvested and ground in extraction buffer (20 mM sodium phosphate, 0.5 M NaCl, pH 7.4). The extract is then centrifuged and the supernatant containing all the soluble proteins including IbGDSL is recovered and sterilised by 0.2 μm filtration. Protein purification is then conducted according to the supplier's instructions on Nickel columns (HisTrap HP-GE HEALTHCARE). […]
# Enzyme assays are performed in a 50 μl volume with 200-400 ng of the purified protein (that is a few μl). The optimal reaction pH will be determined using a polybuffer (0.1 M Tris/20 mM MES/0.1 M acetic acid) from which a pH range of 4 to 9 will be constructed. […]
# 3,5-DCQ quantification is done by measuring the area of the peak of a 3,5-DCQ standard at 330 nm. […] The contents of the other compounds (chlorogenic acid and the other DCQ isomers) are expressed as 3,5-DCQ equivalents. The content is calculated according to the following formula for a compound: […]
# A pH range between 4 and 9 was established to determine the optimal pH for the conversion of CGA into 3,5-DCQ by virtue of IbGDSL. […] From the curve obtained it was determined that the optimal reaction pH is between 6 and 7 (FIG. 3A). […]
# [2] = bioconversion of pure CGA into 3,5-DCQ by P. pastoris culture or supernatant expressing IbGDSL
# Protocol: The bioconversion of CGA into 3,5-DCQ in vivo requires the establishment of a highly metabolically active P. pastoris culture. The yeasts are cultured in nutrient medium containing a 100 mM potassium phosphate buffer with a pH adjusted to pH 6.0. This allows the medium in which the enzyme obtained from the microbial cells and the substrate will be in contact, to be maintained at pH 6. After establishing an inoculum of 25 mL of yeast culture overnight at 30° C. under agitation of 250-300 rpm, this is used to inoculate a volume of 100-200 mL of nutrient medium in such a way as to obtain an OD600nm around 1. To this culture 0.5% methanol is added in order to initiate the production of IbGDSL. The addition of methanol is repeated every 24 hours to maintain the level of induction of protein production. […]
# The first step of this experiment is to show whether the IbGDSL produced by P. pastoris is capable of converting CGA into 3,5-DCQ knowing that the original enzyme could potentially be glycosylated three-fold and that the glycan trees generated by P. pastoris are not comprised and organised in the same way as the plant glycan trees. These differences could directly influence the stability and prevent the proper activity of the enzyme. To do so, supernatants from two P. pastoris cultures, one transformed with the empty vector (negative control) and the other with the vector carrying the gene encoding IbGDSL were recovered after 3 days of methanol induction. These supernatants were incubated at pH 6.5 with 10 mM chlorogenic acid for 30 minutes at 36° C. The enzymatic reaction was then stopped with the addition of ethanol and analysed by UPLC-MS.
# The second step of this experiment is to show whether the CGA directly added to the P. pastoris culture medium expressing the enzyme could be directly converted into 3,5-DCQ. The objective is to avoid the purification step of the enzyme if necessary.
# […] This experiment was conducted at 30° C., the ideal temperature for the culture and growth of the P. pastoris organism.
# [3] = bioconversion of chlorogenic acid from green coffee (Coffea canephora) extract into 3,5-DCQ by IbGDSL from P. pastoris
# Protocol: The bioconversion reaction of CGA into 3,5-DCQ was also carried out from a green coffee (Coffea canephora) extract whose composition is indicated in FIG. 7A. This green coffee extract, comprising a CGA concentration equivalent to 10 mM and bioconverted over a period of 50 hours, at 30° C. and pH 6, led to a new extract whose composition is shown in FIG. 7B. […] Furthermore, no other caffeic acid-containing substrate than chlorogenic acid is biotransformed as no decrease in peaks is observed except for that corresponding to CGA. Bioconversion of green coffee extract with IbGDSL increases the 3,5-DCQ content initially present in the extract 4.5-fold (200 mg/L at T0 and 900 mg at T50h) for a starting CGA concentration equivalent to 10 mM. Bioconversion of CGA into 3,5-DCQ from the green coffee extract was performed after 4 and 7 days, in order to analyse the effect of a reaction with GDSL taking place over a long period of time (FIG. 9). […] The concentration of the IbGDSL enzyme obtained by fermentation of P. pastoris accelerates the reaction speed of the conversion of CGA into 3,5-DCQ (FIG. 10). It is noticed that the same level of 3,5-DCQ concentration can be obtained for enzyme concentration factors of 10-, 20- and 37-fold after 60 h of bioconversion.
molecule,measurement,setting,value
B1,CGA concentration from which a slowing down of the enzyme activity is observed,"[1]; pH 6.5, 30 minutes of incubation at 36° C.",≥ 10 mM
same,temperature of maximum conversion,"[1]; purified IbGDSL, 10 mM CGA, pH 6.5, temperature range 15-45° C.",37 °C
same,"bioconversion yield of CGA into 3,5-DCQ","[2]; 10 mM CGA added directly to culture, pH 6, 30° C., 3 days, stoichiometric limit 50%",around 44%
same,"maximum yield of conversion of pure CGA into 3,5-DCQ","[2]; after 50 hours of bioconversion, 5- and 7.5-mM starting CGA",32%
same,"3,5-DCQ content, maximum amounts","[2]; after 50 hours of bioconversion, starting pure CGA 7.5 and 9 mM",~1.2 g/L
same,"activity of enzyme secreted in P. pastoris supernatant (3,5-DCQ peak)","[2]; supernatant after 3 days methanol induction, pH 6.5, 10 mM chlorogenic acid, 30 minutes at 36° C.",functional
same,product specificity of the bioconversion,"[3]; green coffee extract equivalent to 10 mM CGA, 50 hours, 30° C., pH 6","exclusively catalyses the formation of 3,5-DCQ"
same,"3,5-DCQ content at T50h","[3]; starting CGA equivalent to 10 mM, 30° C., pH 6",900 mg
same,"increase of the 3,5-DCQ content initially present in the extract","[3]; starting CGA equivalent to 10 mM, T50h versus T0",4.5 fold

# From US20230148181A1, “ENZYME FOR THE CONVERSION OF CHLOROGENIC ACID INTO ISOCHLOROGENIC ACID” (UNIVERSITE DE LORRAINE, priority 2020, published 2023)
